From patent US20220118063A1 come the findings set out here.

This assay has as its target FVIII (B region deleted), purchased from American Pharma Wholesale (human) (UniProt P00451). Put plainly: cell-based or functional assay.
Chain of UniProt P00451 (P00451 other isoform, or with tags, fused parts or gaps, chain 1 of 2): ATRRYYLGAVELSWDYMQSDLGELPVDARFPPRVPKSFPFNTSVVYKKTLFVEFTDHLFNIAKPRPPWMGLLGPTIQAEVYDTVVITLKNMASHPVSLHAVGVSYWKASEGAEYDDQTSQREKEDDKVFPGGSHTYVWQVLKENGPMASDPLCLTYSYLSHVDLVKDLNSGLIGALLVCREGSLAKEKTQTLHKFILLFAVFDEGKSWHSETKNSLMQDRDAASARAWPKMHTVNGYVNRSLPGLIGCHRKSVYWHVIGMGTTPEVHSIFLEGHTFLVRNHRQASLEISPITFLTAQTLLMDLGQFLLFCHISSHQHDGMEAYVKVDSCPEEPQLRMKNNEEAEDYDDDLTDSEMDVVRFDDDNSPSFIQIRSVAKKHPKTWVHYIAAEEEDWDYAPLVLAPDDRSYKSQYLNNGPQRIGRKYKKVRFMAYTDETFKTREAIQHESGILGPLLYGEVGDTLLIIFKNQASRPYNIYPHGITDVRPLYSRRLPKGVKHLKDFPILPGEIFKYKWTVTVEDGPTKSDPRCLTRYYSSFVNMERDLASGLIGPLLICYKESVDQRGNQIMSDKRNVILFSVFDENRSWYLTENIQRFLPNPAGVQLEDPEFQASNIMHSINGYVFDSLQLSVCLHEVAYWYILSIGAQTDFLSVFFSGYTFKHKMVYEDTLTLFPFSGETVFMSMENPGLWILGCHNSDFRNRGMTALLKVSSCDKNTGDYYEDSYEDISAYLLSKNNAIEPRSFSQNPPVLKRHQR
Chain of UniProt P00451 (P00451 1668-2351, stated change not applied, chain 2 of 2): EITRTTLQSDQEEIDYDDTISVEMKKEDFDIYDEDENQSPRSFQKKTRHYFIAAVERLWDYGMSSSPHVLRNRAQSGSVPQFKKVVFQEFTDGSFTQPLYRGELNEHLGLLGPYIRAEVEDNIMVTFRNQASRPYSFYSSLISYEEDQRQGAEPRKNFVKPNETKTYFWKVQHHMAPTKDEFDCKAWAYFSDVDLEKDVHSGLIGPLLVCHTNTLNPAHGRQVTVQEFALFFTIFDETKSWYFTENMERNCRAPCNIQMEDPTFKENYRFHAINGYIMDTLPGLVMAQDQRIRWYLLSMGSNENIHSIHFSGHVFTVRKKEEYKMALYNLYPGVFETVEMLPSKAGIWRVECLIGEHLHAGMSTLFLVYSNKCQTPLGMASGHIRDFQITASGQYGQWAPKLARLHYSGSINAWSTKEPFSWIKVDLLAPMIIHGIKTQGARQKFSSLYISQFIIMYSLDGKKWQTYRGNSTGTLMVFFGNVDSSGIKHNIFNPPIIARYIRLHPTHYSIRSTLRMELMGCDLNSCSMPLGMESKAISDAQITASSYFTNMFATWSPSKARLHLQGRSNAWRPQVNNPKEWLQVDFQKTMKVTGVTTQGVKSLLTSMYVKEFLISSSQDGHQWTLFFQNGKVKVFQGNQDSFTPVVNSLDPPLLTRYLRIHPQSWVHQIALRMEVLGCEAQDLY

For “CM110 (expressed from plasmid pCM110RMHM: D′D3 region of human von Willebrand Factor with cys1099 and cys1142 changed to alanine, 56 amino acid glycine serine rich linker, full length human albumin, no His tag) (from UniProt P04275 764-1247)”, the fold decrease in specific activity of CM211 in the APTT against the Coatest assay was 6.5 fold.
